Common to all, as to assay: EnzChek phosphate release assay (PNP-coupled, A360)
Substrate in data set [1]: Nc1ncnc2c1ncn2[C@@H]1O[C@H](COP(=O)(O)OP(=O)(O)OP(=O)(O)O)[C@@H](O)[C@H]1O
The data set is classed as biochemical, Arabidopsis thaliana. Conditions: 37 °C, pH 7.5, 5 mM MgCl2, 15 μM enzyme, 0-2 mM ATP.

Substrate in data set [2]: Nc1ncnc2c1ncn2[C@@H]1O[C@H](COP(=O)(O)OP(=O)(O)OP(=O)(O)O)[C@@H](O)[C@H]1O
The data set is classed as biochemical, Saccharomyces cerevisiae. The note with it: 37 °C, pH 7.5, 5 mM MgCl2, 2.5 μM enzyme, 0-2 mM ATP.

Substrate in data set [3]: Nc1ncnc2c1ncn2[C@@H]1O[C@H](COP(=O)(O)OP(=O)(O)OP(=O)(O)O)[C@@H](O)[C@H]1O
The data set is classed as biochemical, Nostoc sp. PCC 7120 = FACHB-418. Conditions: 37 °C, pH 7.5, 5 mM MgCl2, 15 μM enzyme, 0-2 mM ATP.

For orientation: Km means the substrate concentration at which the rate is half of its maximum. The term kcat denotes the number of substrate molecules converted per active site and unit of time at saturation.

B1: AtGet3d (Arabidopsis thaliana) (protein)
chain: TKFVTFLGKGGSGKTTAAVFAAQHYALAGLSTCLVIHNQDPSAEFLLGSKIGTSPTLINDNLSVIRLETTKMLLEPLKQLKQADARLNMTQGVLEGVVGEELGVLPGMDSIFSMLELERLVGFFRQATRKNHKGKPFDVIIYDGISTEETLRMIGLSSKTRLYAKYLRSLAEKTDLGRLTSPSIMRFVDESMNINSNKSPFDGMTSPAMWDTLERFLETGASAWRDPERFRSFLVMDPNNPMSVKAALRYWGCTVQAGSHVSGAFAISSSHLTSQIPKADFVPLPFASASVPFTITGLDWDKILLDQANSSIRELLSETVSHGTSLTQTVMFDTAKKLVTLFMPGFEKSEIKLYQYRGGSELLIEAGDQRRVIHLPSQIQGKVGGAKFVDRSLIVTMR
notes: delta1-57 (chloroplast transit peptide removed), expressed in E. coli; ATPase assay: N-terminal His6-3C tag; crystal: pET22b(+) NdeI-XhoI construct; homodimer
Consider B1, for which, in data set [1], the Km was 351 ± 4 µM and the kcat worked out at 0.0183 ± 0.00017 s⁻¹.

B2: ScGet3 (yeast Get3) (Saccharomyces cerevisiae S288C) (protein)
chain: MDLTVEPNLHSLITSTTHKWIFVGGKGGVGKTTSSCSIAIQMALSQPNKQFLLISTDPAHNLSDAFGEKFGKDARKVTGMNNLSCMEIDPSAALKDMNDMAVSRANNNGSDGQGDDLGSLLQGGALADLTGSIPGIDEALSFMEVMKHIKRQEQGEGETFDTVIFDTAPTGHTLRFLQLPNTLSKLLEKFGEITNKLGPMLNSFMGAGNVDISGKLNELKANVETIRQQFTDPDLTTFVCVCISEFLSLYETERLIQELISYDMDVNSIIVNQLLFAENDQEHNCKRCQARWKMQKKYLDQIDELYEDFHVVKMPLCAGEIRGLNNLTKFSQFLNKEYNPITDGKVIYELEDKE
notes: N-terminal His6-TEV tag (pET33b), expressed in E. coli
As for B2, in data set [2], the Km was 48 ± 2 µM and the kcat was 0.045 ± 0.00033 s⁻¹.

B3: NosGet3d (Nostoc sp. PCC 7120 = FACHB-418) (protein)
chain: MALILTFLGKSGVARTKIAIAAAKLLASQGKRVLLAGLAEPVLPLLLEQTLTPDPQQIAPNLEVVQFQSSVLLERNWEEVKKLEAQYLRTPIIKEVYGQELVVLPGMDSALALNAIREYDASGKYDAIVYDGTGDAFTLRMLGLPESLSWYVRRFRQLFVNSDLGKTIAESPLIQPLISSFFNVNWTADNFAQPTNQVNNFLDKGKEALADPKRVAAFLVTTADPLEVVSVRYLWGSAQQIGLTIGGVIQVSSQTEGDLSAEFTPLSVTVVPDVTKGDWQPLIDALPNFVEQAEQAPKPITIDTHNRQVRLFLPGFDKKQVKLTQYGPEVTVEAGDQRRNIFLPPALSGRPITGAKFQNNYLIISF
notes: N-terminal His6-TEV tag (pET33b), expressed in E. coli; homodimer
Regarding B3, in data set [3], the Michaelis-Menten constant (Km) came out at 353 ± 10 µM and the kcat came to 0.00467 ± 0.00017 s⁻¹.

(Values after article PMC10248533, “Structures of Get3d reveal a distinct architecture associated with the emergence of photosynthesis” (The Journal of Biological Chemistry, 2023).)
